From publication PMC5776806

Molecular target: extracellular soluble part of EGFR (sEGFR) (UniProt P00533)
Assay: SPR

## EGF (ligand)
  Kd: 0.06 µM
